Assay results taken from US12760268, “Compositions and methods related to transferrin receptor-binding aptamers” (University of Washington).

Experiments:
[1] = target: T1, Cellular nucleic acid-binding protein (CNBP, ZNF9) (Homo sapiens, UniProt P62633 P62633:1-177); assay: BLI; settings: tags: His-tag, Novus Biologicals NBP2-22742, immobilized on Ni-NTA biosensor
[2] = target: T2, Transferrin receptor 1 (TfR1, CD71) (Homo sapiens, UniProt P02786 SEQ:89-760); assay: BLI; negative control; settings: tags: biotinylated, ACROBiosystems TfR-H82E5, immobilized on streptavidin biosensor; chain copies: 2; label: 5'-FAM, 5'-Cy5 or 5'-biotin
T2 sequence (P02786 89-760): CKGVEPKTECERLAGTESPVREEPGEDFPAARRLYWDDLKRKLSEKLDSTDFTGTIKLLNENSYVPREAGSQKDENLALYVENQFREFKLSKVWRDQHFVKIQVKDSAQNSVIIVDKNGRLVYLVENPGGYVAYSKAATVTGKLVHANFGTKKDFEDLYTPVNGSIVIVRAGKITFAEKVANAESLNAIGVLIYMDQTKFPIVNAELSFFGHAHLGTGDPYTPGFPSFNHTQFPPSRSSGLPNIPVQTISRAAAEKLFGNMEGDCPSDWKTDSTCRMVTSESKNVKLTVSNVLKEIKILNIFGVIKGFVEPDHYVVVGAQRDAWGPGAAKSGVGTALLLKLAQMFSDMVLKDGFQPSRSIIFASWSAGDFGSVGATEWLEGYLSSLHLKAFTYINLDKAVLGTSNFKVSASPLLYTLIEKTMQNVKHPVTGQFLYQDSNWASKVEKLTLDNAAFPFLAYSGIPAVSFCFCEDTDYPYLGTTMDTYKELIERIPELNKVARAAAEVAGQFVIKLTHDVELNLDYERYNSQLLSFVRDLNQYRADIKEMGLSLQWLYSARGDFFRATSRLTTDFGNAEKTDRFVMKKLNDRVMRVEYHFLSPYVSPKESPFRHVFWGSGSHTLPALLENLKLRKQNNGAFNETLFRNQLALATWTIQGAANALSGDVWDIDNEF

[3] = target: T2, Transferrin receptor 1 (TfR1, CD71); assay: BLI; 25 C, 5.5 mM Mg, 1:1 fit; settings: tags: biotinylated, ACROBiosystems TfR-H82E5, immobilized on streptavidin biosensor, chain copies: 2
[4] = target: T3, Transferrin receptor 1 (TfR1, CD71), endogenous on cells (Homo sapiens, UniProt P02786 SEQ:89-760); assay: flow; H9 cells, apparent Kd, 4 C; settings: chain copies: 2 (stated homodimer); label: 5'-FAM or 5'-Cy5; multi-hairpin with extended stem
T3 sequence (P02786 89-760): as above

[5] = target: T3, Transferrin receptor 1 (TfR1, CD71), …; assay: flow; Jurkat cells, apparent Kd, 4 C; settings: chain copies: 2 (stated homodimer)
[6] = target: T2, Transferrin receptor 1 (TfR1, CD71); assay: BLI; no appreciable binding, single concentration; settings: tags: biotinylated, ACROBiosystems TfR-H82E5, immobilized on streptavidin biosensor; chain copies: 2; label: 5'-FAM
[7] = target: T3, Transferrin receptor 1 (TfR1, CD71), …; assay: flow; H9 cells, apparent Kd (+/-0.2), 4 C; settings: chain copies: 2 (stated homodimer); label: 5'-FAM, 5'-Cy5 or 5'-biotin; hairpin
[8] = target: T3, Transferrin receptor 1 (TfR1, CD71), …; assay: flow; activated CD4+ T cells, apparent Kd, 4 C; settings: chain copies: 2 (stated homodimer); label: biotin; 3' 8-nt toehold overhang, redesigned stem
[9] = target: T3, Transferrin receptor 1 (TfR1, CD71), …; assay: flow; activated CD8+ T cells, apparent Kd, 4 C; settings: chain copies: 2 (stated homodimer); label: biotin; 3' 8-nt toehold overhang, redesigned stem
[10] = target: T3, Transferrin receptor 1 (TfR1, CD71), …; assay: flow; H9 cells, apparent Kd (+/-13.0), 4 C; settings: chain copies: 2 (stated homodimer); label: 5'-FAM (with added 5' T), 5'-Cy5 or 5'-biotin; multi-hairpin on stem; G-quadruplex predicted
[11] = target: Transferrin receptor 1 (mTfR1) (Mus musculus, UniProt Q62351 SEQ:89-763); assay: BLI; 200 nM mTfR1 over immobilized biotinylated aptamer; settings: tags: His-tag, Sino Biological 50741-M07H; chain copies: 2; label: 5'-FAM (with added 5' T), 5'-Cy5 or 5'-biotin; multi-hairpin on stem; G-quadruplex predicted
Transferrin receptor 1 (mTfR1), sequence (Q62351 89-763): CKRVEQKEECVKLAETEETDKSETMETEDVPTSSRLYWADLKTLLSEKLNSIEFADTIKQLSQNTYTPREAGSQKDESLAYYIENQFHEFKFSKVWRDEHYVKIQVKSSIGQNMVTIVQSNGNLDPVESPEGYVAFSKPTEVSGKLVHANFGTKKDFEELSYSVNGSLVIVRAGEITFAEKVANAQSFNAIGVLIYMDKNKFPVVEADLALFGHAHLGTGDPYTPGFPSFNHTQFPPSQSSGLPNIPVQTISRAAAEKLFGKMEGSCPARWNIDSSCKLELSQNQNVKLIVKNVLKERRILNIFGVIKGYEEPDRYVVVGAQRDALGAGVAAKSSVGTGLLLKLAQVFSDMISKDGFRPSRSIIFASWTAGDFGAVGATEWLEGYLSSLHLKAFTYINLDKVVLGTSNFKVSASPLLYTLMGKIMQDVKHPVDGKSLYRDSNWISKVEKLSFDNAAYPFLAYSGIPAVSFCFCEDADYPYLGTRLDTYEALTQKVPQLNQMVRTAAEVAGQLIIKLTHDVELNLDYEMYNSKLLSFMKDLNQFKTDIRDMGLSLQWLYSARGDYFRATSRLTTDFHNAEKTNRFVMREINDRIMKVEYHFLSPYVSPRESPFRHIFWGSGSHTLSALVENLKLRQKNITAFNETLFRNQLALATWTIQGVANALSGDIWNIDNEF

[12] = target: T1, Cellular nucleic acid-binding protein …; assay: BLI; 2:1 heterogeneous ligand fit, first Kd; off-target; settings: tags: His-tag, Novus Biologicals NBP2-22742, immobilized on Ni-NTA biosensor; label: 5'-FAM (with added 5' T), 5'-Cy5 or 5'-biotin; multi-hairpin on stem; G-quadruplex predicted
[13] = target: T1, Cellular nucleic acid-binding protein …; assay: BLI; 2:1 heterogeneous ligand fit, second Kd; off-target; settings: tags: His-tag, Novus Biologicals NBP2-22742, immobilized on Ni-NTA biosensor; label: 5'-FAM (with added 5' T), 5'-Cy5 or 5'-biotin; multi-hairpin on stem; G-quadruplex predicted
[14] = target: T2, Transferrin receptor 1 (TfR1, CD71); assay: BLI; 25 C, 5.5 mM Mg, 1:1 fit; tRNA and salmon sperm DNA present; settings: tags: biotinylated, ACROBiosystems TfR-H82E5, immobilized on streptavidin biosensor; chain copies: 2; label: 5'-FAM (with added 5' T), 5'-Cy5 or 5'-biotin; multi-hairpin on stem; G-quadruplex predicted
[15] = target: T3, Transferrin receptor 1 (TfR1, CD71), …; assay: flow; Jurkat cells, apparent Kd, 4 C; TfR1-independent component present; settings: chain copies: 2 (stated homodimer); label: 5'-FAM (with added 5' T), 5'-Cy5 or 5'-biotin; multi-hairpin on stem; G-quadruplex predicted
[16] = label: 5'-FAM, 5'-Cy5 or 5'-biotin, hairpin

T1 sequence (P62633 whole entry, one chain of several): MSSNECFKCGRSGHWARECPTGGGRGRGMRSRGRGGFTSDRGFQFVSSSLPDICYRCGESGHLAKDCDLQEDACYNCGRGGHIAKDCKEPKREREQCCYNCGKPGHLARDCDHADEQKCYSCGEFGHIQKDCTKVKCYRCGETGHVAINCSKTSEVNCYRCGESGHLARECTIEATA

B1: RANL (ssDNA)
DNA: ATCCAGAGTGACGCAGCAAATTCCAAACTCGAGTAAGCGTAGAGCCTCTCATCGCCTCAATAATGGACACGGTGGCTTAGT
- binding result ([1]; label: 5'-FAM, 5'-Cy5 or 5'-biotin): no binding
- binding result [2]: no binding

B2: JBA8.26 (ssDNA)
DNA: ATCCAGAGTGACGCAGCAGCGTAAAGGGGGTGTTTGTGCGGTGTGGAGTGCGCGCGCTGCTGCTGGACACGGTGGCTTAGT
- Kd ([3]; label: 5'-FAM or 5'-Cy5, multi-hairpin with extended stem): 6.87 nM
- Kd [4]: 3.3 nM

B3: JBA8.1 (ssDNA)
DNA: ATCCAGAGTGACGCAGCAGCGTAAAGGGGGTGTTTGTGCGGTGTGGAGTGCGCGTGCTGCTGCTGGACACGGTGGCTTAGT
- Kd ([5]; label: 5'-FAM or 5'-Cy5, multi-hairpin on stem, G-quadruplex predicted): 5.5 nM

B4: JBA8.3 (ssDNA)
DNA: ATCCAGAGTGACGCAGCAGGGGCCGCGGATGCAAACGCCCGATAGGGGGACGGCACTGGAGCTTGGACACGGTGGCTTAGT
- binding result [6]: no binding

B5: JBA8.11 (ssDNA)
DNA: ATCCAGAGTGACGCAGCAGCCGGTCGCAGATGCAAATGCCCGACAGGGGGACGCGGGCTGCCATGGACACGGTGGCTTAGT
- binding result [6]: no binding

B6: JBA8.15 (ssDNA)
DNA: ATCCAGAGTGACGCAGCACTCTCGGGGGGTAGGTGGGAAGGGGGCCGCCCCCTGGGTTAGGCTTGGACACGGTGGCTTAGT
- binding result [6]: no binding

B7: XQ-2d (ssDNA)
DNA: ACTCATAGGGTTAGGGGCTGCTGGCCAGATACTCAGATGGTAGGGTTACTATGAGC
- binding result [1, 16]: no binding
- Kd [3, 16]: 14.4 nM
- Kd [7]: 2.2 nM

B8: rvCD71apt (JBA1.2) (ssDNA)
DNA: GGAGTCACACGCATTAGCGTAAAGGGGGTGTTTGTGCGGTGTGGAGTGCGCGTGCTAATGCTGGAGTGTTTCCCAGGACCC
- Kd ([5]; label: biotin, 3' 8-nt toehold overhang, redesigned stem): 35.2 nM
- Kd [8]: 28.5 nM
- Kd [9]: 35 nM

B9: JBA8.4 (ssDNA)
DNA: ATCCAGAGTGACGCAGCAACCCAAACCACCAGCCGGGGATGCAAACACCGCACAGGGAACGGCTGGACACGGTGGCTTAGT
- binding result [6]: no binding

B10: tJBA8.1 (ssDNA)
DNA: GCAGCAGCGTAAAGGGGGTGTTTGTGCGGTGTGGAGTGCGCGTGCTGCTGC
- Kd [10]: 25.6 nM
- binding result [11]: no binding
- Kd [12]: 1.85 nM
- Kd [13]: 8.07 nM
- Kd [14]: 25.1 nM
- Kd [15]: 10.9 nM

B11: tJBA8.1 GGGGC (ssDNA)
DNA: GCAGCAGCGTAAAGGGGCTGTTTGTGCGGTGTGGAGTGCGCGTGCTGCTGC
- binding result [1]: no binding

B12: tJBA8.1 GGGAG (ssDNA)
DNA: GCAGCAGCGTAAAGGGAGTGTTTGTGCGGTGTGGAGTGCGCGTGCTGCTGC
- binding result [1]: no binding

B13: tJBA8.1 GGAGG (ssDNA)
DNA: GCAGCAGCGTAAAGGAGGTGTTTGTGCGGTGTGGAGTGCGCGTGCTGCTGC
- binding result [1]: no binding

B14: JBA8.7 (ssDNA)
DNA: ATCCAGAGTGACGCAGCAACCACAGATGCAAATGCGCGAGAGCGGGACGGTTTGCTAGGCTCATGGACACGGTGGCTTAGT
- binding result [6]: no binding
